According to paper PMC12442378, “SmsB-SmsC machinery in Thermococcus kodakarensis functions as an archaeal scaffold mediating Fe-S cluster assembly” (Applied and Environmental Microbiology, 2025):

B1: Tk-CSD (cysteine desulfurase of T. kodakarensis, TK1990 protein) (enzyme, Thermococcus kodakarensis, UniProt Q5JIJ0 1-399, looked up)
chain: MKIPDDIRKDIPLTSEVIYFDNTATSLTPKPVIEAMDEYYLKYRANVHRGVHRLSQIATHKYEESRKVVADFINAKFEEIVFTKNTSESLNLVALGLEHIFEKGDKIVTTPYEHHSDLLPWQRLAKKKGLRLEFIEGDLEGNLDLADAEKKIKGAKLVAVQHVSNALGVIHEVEELGKMAKEEGAIFVVDAAQSAGHMEVDVKKLYADFLGFSGHKGPMGPTGIGVLYINSEFFDVFEPPLIGGGTIEDVDLDSYKLAEPPERFEAGTPNIGGAIGLAAGIRYIERIGIEKIEKQEHKLVKRTTEGLDELEVPWYGPRNLKKHAGVVSFNVPPLHPHDVAAILDEHNIMVRSGHHCALPAMKKLGVEGTVRASFHVYNSVEEVETFLSVMENLIRGLRG
notes: cysteine desulfurase (SufS homolog) of Thermococcus kodakarensis, locus TK1990; coding region amplified from genomic DNA of strain KU216; theoretical monomer mass 44.4 kDa; Cloned NheI-EcoRI into pET-21a(+); Homodimer by gel filtration; source: E. coli BL21-CodonPlus(DE3)-RIL (pET1990), purified (heat treatment, anion exchange, gel filtration)
B2: Tk-SmsC (TK0731 protein), recombinant (enzyme, Thermococcus kodakarensis, UniProt Q5JG66 1-246, looked up)
chain: MLKVENLHVSVEDKEILRGVDLEVNPGEFHVIMGPNGSGKSTLALTIAGHPKYRVTDGKILFEGEDITELGPDERAKRGILLAFQVPPEVEGVKVIEFLQQVLVELKGMDPAEAYDLVVEKAKELWFKEEDLHRYVNVGFSGGERKRLELLQALLIEPKLLILDEPDSGVDVDSLSIISRKIEELHQRGTAILLITHYGRILGHLDREKLTVHVMKDGRIVKTGSGELVDQIDREGFARIFEEVGA
notes: SmsC (SufC homolog, ABC-type ATPase) of Thermococcus kodakarensis, locus TK0731; coding region amplified from genomic DNA of strain KU216; theoretical mass 27.5 kDa; Cloned NdeI-BamHI into pET-21a(+); Monomer by gel filtration; source: E. coli BL21-CodonPlus(DE3)-RIL (pET0731), purified (heat treatment, anion exchange, gel filtration)
B3: Tk-SmsB (TK0730 protein) with a 6x His tag at its N-terminus (natural protein, Thermococcus kodakarensis, UniProt Q5JG67 1-446, looked up)
chain: MTETITMADAKAIIENQIEELARRNKEPEWMTKIRYKALEAFERAPHKDPVISEEQLLHFIAKPEVKGLPDHIESLDDLPPEMKALLDRLGISEVEQKYIAGLAVQTDTGVIYNQFLQDWAKKGLIVLPTEEAVRKYPDIVKQHFLKLFRADESKLTAYHTAVWNGGIFLYVKEGLKVPFPLHLFFLIQESALAQAPHIIIIAERNTEFHLIEGCTAPILLKHSLHLDMTEAYFHEGAKAQLTVLQNWPEYVHTRPMTRAKVGRGARFINTTVTLGSGKSNIGDPHYWVEEGGHVELNGIILGQKDFYVDLGGRMFLQGPGASGINASKAVIMDESTVVTRGIIEADAPKTKGHISCDALLMSDKAVMETYPGLISRVDDAELSHEAAIGKIREEELFYLMSRGLDEEKATQLIVKGFLDPMLKDIPMEFLVEIRKIIELAVSGGM
notes: SmsB (SufB homolog) of Thermococcus kodakarensis, locus TK0730; coding region amplified from genomic DNA of strain KU216; theoretical monomer mass 50.8 kDa including the His tag; Homodimer by gel filtration.); not shown: His6, N-terminal, kept

Experiments:
[1] = target: the molecule itself; test: SEC; gel filtration of Tk-CSD alone and of its mixtures with Tk-SmsB, Tk-SmsC or both, 30 uM of each protein; fractions analysed by SDS-PAGE
[2] = target: B3; test: SEC; Superdex 200 Increase 10/300 GL; 50 mM HEPES pH 7.5, 0.15 M NaCl; Tk-SmsB 40 uM alone, Tk-SmsC 72 uM alone, or mixture of 40 uM each; peak fraction analysed by SDS-PAGE and band densitometry; conditions: both partners purified
[3] = target: B3; test: cell-based or functional assay
[4] = target: the molecule itself; test: SEC; Superdex 200 Increase 10/300 GL; 50 mM HEPES pH 7.5, 0.15 M NaCl; Tk-SmsB 40 uM alone, Tk-SmsC 72 uM alone, or mixture of 40 uM each; peak fraction analysed by SDS-PAGE and band densitometry

B1
stoichiometry N [1]: 2

B2
density ratio of the Tk-SmsB band to the Tk-SmsC band (SDS-PAGE of peak Pm) [2]: 1.13 | stoichiometry N [2]: 1 Tk-SmsC per Tk-SmsB (printed as 2:2) | kcat/Km of ATP hydrolysis, Tk-SmsB2C2 (Tk-SmsC alone 4.4 × 10^2) [3]: 4600 M⁻¹ s⁻¹

B3
stoichiometry N [4]: 2
